Test results from patent US20230331828A1.

Molecular target: soluble Aβ (Aβ42) aggregates (human)
Assay: cell-based or functional assay

Chain of soluble Aβ (Aβ42) aggregates (human) (peptide, as listed by the source): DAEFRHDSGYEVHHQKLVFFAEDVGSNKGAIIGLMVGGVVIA

Mean (Aβ spots per neuron); Isotype Control 1:50 (Aβ spots per neuron): 58.7
Substance: human IgG isotype control antibody
